The values that follow come from article PMC9418156.

The nature of data set [1]: brefeldin A washout, confocal time course. Particulars: glycan lost; control: wild type.
A short description of data set [2]: surface biotinylation, anti-LAT1 blot. Particulars: glycan lost; control: wild type.
Data set [3] can be described thus: cycloheximide chase, anti-FLAG blot. Particulars: glycan lost; control: wild type.
The nature of data set [4]: cell surface biotinylation, anti-FLAG blot. Particulars: glycan lost; control: wild type.
Data set [5] can be described thus: co-transfection with HA-LAT1, brefeldin washout, confocal. To be noted: glycan lost; control: wild type.
Data set [6] in a line: confocal, surface anti-CD98 vs anti-FLAG, HEK293. To be noted: glycan lost; control: wild type.
The nature of data set [7]: tunicamycin then surface biotinylation (Fig. S1). To be noted: glycan lost; control: vehicle (DMSO).

B1: CD98 (SLC3A2, 4F2hc): Qm (protein)
parent chain: MELQPPEASIAVVSIPRQLPGSHSEAGVQGLSAGDDSELGSHCVAQTGLELLASGDPLPSASQNAEMIETGSDCVTQAGLQLLASSDPPALASKNAEVTGTMSQDTEVDMKEVELNELEPEKQPMNAASGAAMSLAGAEKNGLVKIKVAEDEAEAAAAAKFTGLSKEELLKVAGSPGWVRTRWALLLLFWLGWLGMLAGAVVIIVRAPRCRELPAQKWWHTGALYRIGDLQAFQGHGAGNLAGLKGRLDYLSSLKVKGLVLGPIHKNQKDDVAQTDLLQIDPNFGSKEDFDSLLQSAKKKSIRVILDLTPNYRGENSWFSTQVDTVATKVKDALEFWLQAGVDGFQVRDIENLKDASSFLAEWQNITKGFSEDRLLIAGTNSSDLQQILSLLESNKDLLLTSSYLSDSGSTGEHTKSLVTQYLNATGNRWCSWSLSQARLLTSFLPAQLLRLYQLMLFTLPGTPVFSYGDEIGLDAAALPGQPMEAPVMLWDESSFPDIPGAVSANMTVKGQSEDPGSLLSLFRRLSDQRSKERSLLHGDFHAFSAGPGLFSYIRHWDQNERFLVVLNFGDVGLSAGLQASDLPASASLPAKADLLLSTQPGREEGSPLELERLKLEPHEGLLLRFPYAA
Regarding B1, the localisation_or_trafficking result in data set [1] and in data set [4] was “decreases” in each case. The entries for the “other: routing of partner LAT1 to plasma membrane” value in data set [2] and in data set [5] were “abolishes” and “decreases”, respectively. The “degradation_or_half_life, other: percent of initial protein after 6 h” value in data set [3] is reported as “decreases, <20 vs >50”.

B2: CD98 (SLC3A2, 4F2hc): N424Q (protein)
parent chain: B1 parent chain
For the protein B2, in data set [6], the localisation_or_trafficking entry was “no change”.

B3: CD98 (SLC3A2, 4F2hc): N365Q (protein)
parent chain: B1 parent chain
Regarding B3, the localisation_or_trafficking result in data set [6] was “no change”.

B4: CD98 (SLC3A2, 4F2hc): Tm (N365/381/424Q) (protein)
parent chain: B1 parent chain
As for B4, in data set [6], the localisation_or_trafficking result is given as “changes”.

B5: CD98 (SLC3A2, 4F2hc): tunicamycin (protein)
parent chain: B1 parent chain
On to B5, for which the localisation_or_trafficking result in data set [7] is recorded as “decreases”.

B6: CD98 (SLC3A2, 4F2hc): Dm (N381/424Q) (protein)
parent chain: B1 parent chain
As to B6, in data set [6], the localisation_or_trafficking entry is “changes”.

B7: CD98 (SLC3A2, 4F2hc): Qm (N365/381/424/506Q) (protein)
parent chain: B1 parent chain
For B7, the localisation_or_trafficking entry in data set [6] is given as “decreases”.

B8: CD98 (SLC3A2, 4F2hc): N506Q (protein)
parent chain: B1 parent chain
For B8, the localisation_or_trafficking entry in data set [6] was “no change”.

B9: CD98 (SLC3A2, 4F2hc): N381Q (protein)
parent chain: B1 parent chain
As to B9, the localisation_or_trafficking result in data set [6] is “no change”.
